From patent US20190284246A1
pKd: −log10 of the molar value.

How the values were obtained:
[1] = biological target: ΔN28-CofB (enterotoxigenic Escherichia coli (ETEC)); experiment: ITC, peptide titrated into ΔN28-CofB
[2] = biological target: ΔN28-CofB (enterotoxigenic Escherichia coli (ETEC)); experiment: ITC
[3] = biological target: ΔN28-CofB (enterotoxigenic Escherichia coli (ETEC)); experiment: ITC, CofJ titrated into ΔN28-CofB, 25° C.

Substance	pKd [1]	fold stronger binding affinity than CofJ to ΔN28-CofB [2]	pKd [3]
CofJ^1-24 peptide	5.40	–	–
CofJ^1-24-GCN4 inhibitory peptide (designed binder)	7.40	5 fold	–
CofJ^4-16 peptide	5.40	–	–
CofJ^4-16-GCN4 inhibitory peptide (designed binder)	7.10	2.5 fold	–
secretory protein CofJ	–	–	6.70
